Publication PMC7664906 (International Journal of Molecular Sciences, 2020)
Like-named read-outs stand apart in the source and are kept apart here. Where no end group is shown, it is not given here.

Assays:
[1] = target: SNAP-GLP-1R (pSNAP-GLP-1R) on HEK293-SNAP-GLP-1R cells (UniProt P43220); assay: FRET or BRET
ECE-1 = ECE-1 (Homo sapiens, UniProt P42892)
[2] = 10 nmol peptide in 750 µl 0.2 M acetate buffer pH 5.5 (GLP-1 also at neutral pH), 0.25 µg recombinant ECE-1, 37 °C, up to 24 h, RP-HPLC C18, UV 214 nm, peak area with versus without enzyme, n = 2-3

SNAP-GLP-1R (pSNAP-GLP-1R) on HEK293-SNAP-GLP-1R cells, sequence (P43220 24-463): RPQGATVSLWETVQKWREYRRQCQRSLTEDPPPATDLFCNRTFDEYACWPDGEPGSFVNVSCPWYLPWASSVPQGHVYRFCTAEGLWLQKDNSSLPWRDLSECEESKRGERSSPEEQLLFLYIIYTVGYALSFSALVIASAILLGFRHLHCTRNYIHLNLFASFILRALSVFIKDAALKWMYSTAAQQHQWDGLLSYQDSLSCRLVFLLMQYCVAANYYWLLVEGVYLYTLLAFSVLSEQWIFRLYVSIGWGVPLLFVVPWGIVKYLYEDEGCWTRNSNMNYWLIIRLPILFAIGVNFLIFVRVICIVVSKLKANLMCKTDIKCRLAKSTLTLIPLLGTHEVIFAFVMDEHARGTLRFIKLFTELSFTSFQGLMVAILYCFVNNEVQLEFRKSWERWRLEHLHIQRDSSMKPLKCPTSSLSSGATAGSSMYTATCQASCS
ECE-1, sequence (P42892 whole entry, species assumed): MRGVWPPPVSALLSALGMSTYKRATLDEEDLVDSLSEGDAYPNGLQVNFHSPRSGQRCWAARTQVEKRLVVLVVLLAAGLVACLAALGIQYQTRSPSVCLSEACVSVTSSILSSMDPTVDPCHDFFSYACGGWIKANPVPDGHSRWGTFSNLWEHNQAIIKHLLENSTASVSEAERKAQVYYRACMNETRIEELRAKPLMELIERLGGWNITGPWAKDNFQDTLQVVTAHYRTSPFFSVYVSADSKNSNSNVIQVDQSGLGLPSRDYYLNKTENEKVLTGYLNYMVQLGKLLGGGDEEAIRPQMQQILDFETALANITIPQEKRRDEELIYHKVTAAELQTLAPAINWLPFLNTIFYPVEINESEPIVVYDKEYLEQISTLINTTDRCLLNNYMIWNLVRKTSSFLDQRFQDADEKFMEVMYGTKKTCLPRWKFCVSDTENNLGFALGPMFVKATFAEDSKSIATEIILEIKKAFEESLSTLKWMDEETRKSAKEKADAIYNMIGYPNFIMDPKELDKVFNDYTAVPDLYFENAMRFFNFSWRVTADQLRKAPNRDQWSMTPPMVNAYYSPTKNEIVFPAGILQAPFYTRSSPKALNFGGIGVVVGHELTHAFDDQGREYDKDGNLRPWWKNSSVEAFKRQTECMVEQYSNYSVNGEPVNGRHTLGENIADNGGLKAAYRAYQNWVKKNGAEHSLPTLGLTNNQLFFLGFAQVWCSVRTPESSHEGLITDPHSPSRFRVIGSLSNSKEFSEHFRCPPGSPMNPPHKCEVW

For “exendin-4(1-30), N-terminus F1 (phe1 derivative) (peptide)”, which Log Ki [1] is on record?
Its Log Ki is -7.5 Log (M).

`CC[C@H](C)[C@H](NC(=O)[C@H](Cc1ccccc1)NC(=O)[C@H](CCC(=O)O)NC(=O)[C@H](CCCCN)NC(=O)[C@H](C)NC(=O)[C@H](C)NC(=O)[C@H](CCC(N)=O)NC(=O)CNC(=O)[C@H](CCC(=O)O)NC(=O)[C@H](CC(C)C)NC(=O)[C@H](Cc1ccc(O)cc1)NC(=O)[C@H](CO)NC(=O)[C@H](CO)NC(=O)[C@@H](NC(=O)[C@H](CC(=O)O)NC(=O)[C@H](CO)NC(=O)[C@@H](NC(=O)[C@H](Cc1ccccc1)NC(=O)[C@@H](NC(=O)CNC(=O)[C@H](CCC(=O)O)NC(=O)CNC(=O)[C@@H](N)Cc1cnc[nH]1)[C@@H](C)O)[C@@H](C)O)C(C)C)C(=O)N[C@@H](C)C(=O)N[C@@H](Cc1c[nH]c2ccccc12)C(=O)N[C@@H](CC(C)C)C(=O)N[C@H](C(=O)N[C@@H](CCCCN)C(=O)NCC(=O)N[C@@H](CCCNC(=N)N)C(N)=O)C(C)C` [GLP-1-G2] was tested. Which “In vitro peptide degradation by / resistance to ECE-1 (in words)” value (ECE-1; pH 5.5) did it give?
Its value is “ECE-1-sensitive”.

How did the “In vitro peptide degradation by / resistance to ECE-1 (in words)” value (ECE-1; [2]) turn out when “HAEGTFTSDVSSYLEGQAAKEFIEWLKNGGPSSGAPPPS-NH2 [Chi2]” was run?
Its value is “most ECE-1-resistant”.

Which Log Ki [1] does the source give for “Chi1, N-terminus F1 (phe1 derivative) (peptide)” here?
Its Log Ki is -6.4 Log (M).

For “exendin-4(1-30), N-terminus D3 (asp3 derivative) (peptide)”, which Log Ki [1] is on record?
The Log Ki was -9.2 Log (M).

How did the Log Ki [1] turn out when exendin-phe1 (peptide) was run?
Its Log Ki is -7.3 Log (M).

How did the Log Ki [1] turn out when “exendin-4 (from UniProt P26349 48-87) (peptide)” was run?
Its Log Ki is -9.5 Log (M).

Which Log Ki [1] does the source give for “exendin-4, N-terminus D3 (asp3 derivative) (peptide)” here?
Its Log Ki is -9.2 Log (M).

With “Chi1 (GLP-1 with the exendin-4 Trp-cage added to its C-terminus) (peptide)” as the compound, how does the Log Ki [1] read?
The Log Ki was -8.2 Log (M).

For “Chi1, N-terminus D3 (asp3 derivative) (peptide)”, which Log Ki [1] is on record?
The Log Ki was -8.5 Log (M).

With exendin-4(1-30) (peptide) as the compound, how does the Log Ki [1] read?
Its Log Ki is -9 Log (M).

How did the “In vitro peptide degradation by / resistance to ECE-1 (in words)” value (ECE-1; [2]) turn out when `CC[C@H](C)[C@H](NC(=O)[C@H](Cc1ccccc1)NC(=O)[C@H](CC(C)C)NC(=O)[C@H](CCCNC(=N)N)NC(=O)[C@@H](NC(=O)[C@H](C)NC(=O)[C@H](CCC(=O)O)NC(=O)[C@H](CCC(=O)O)NC(=O)[C@H](CCC(=O)O)NC(=O)[C@H](CC(C)C)NC(=O)[C@H](Cc1ccc(O)cc1)NC(=O)[C@H](CO)NC(=O)[C@H](CO)NC(=O)[C@@H](NC(=O)[C@H](CC(=O)O)NC(=O)[C@H](CO)NC(=O)[C@@H](NC(=O)[C@H](Cc1ccccc1)NC(=O)[C@@H](NC(=O)CNC(=O)[C@H](CCC(=O)O)NC(=O)[C@H](C)NC(=O)[C@@H](N)Cc1c[nH]cn1)[C@@H](C)O)[C@@H](C)O)C(C)C)C(C)C)C(=O)N[C@@H](CCC(=O)O)C(=O)N[C@@H](Cc1c[nH]c2ccccc12)C(=O)N[C@@H](CC(C)C)C(=O)N[C@@H](CCCCN)C(=O)N[C@@H](CC(N)=O)C(=O)NCC(=O)NCC(=O)N1CCC[C@H]1C(=O)N[C@@H](CO)C(=O)N[C@@H](CO)C(=O)NCC(=O)N[C@@H](C)C(=O)N1CCC[C@H]1C(=O)N1CCC[C@H]1C(=O)N1CCC[C@H]1C(=O)N[C@@H](CO)C(N)=O` [Chi3] was run?
The value was “most ECE-1-resistant”.
